Source: publication PMC10320583 (Journal of Structural Biology: X, 2023)
Values belong to the molecule of their own block, whether it stands above or below them.

Experiments:
[1] = target: E. coli LptAm-GSGGSGSG-AviTag, biotinylated (E. coli) (UniProt P0ADV1)
[2] = target: T1, E. coli LptAm-GSGGSGSG-AviTag, biotinylated (E. coli, UniProt P0ADV1 28-158, biotin on the AviTag (BirA biotin-protein ligase)); test: BLI
T1 sequence (looked up): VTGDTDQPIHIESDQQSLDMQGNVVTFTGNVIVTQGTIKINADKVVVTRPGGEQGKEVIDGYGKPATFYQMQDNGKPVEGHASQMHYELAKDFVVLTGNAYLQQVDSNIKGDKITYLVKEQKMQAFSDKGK

[3] = target: the molecule itself; test: crystal structure

fold improvement of binding over P. maculiventris thanatin [2]: ~3 fold
Molecule: GSKKPVPIIACNRRTGKCQRM (peptide, UniProt P55788 1-21, looked up) [P. maculiventris thanatin Y10A]

fold improvement of binding over P. maculiventris thanatin [2]: ~3 fold
Molecule: GSKKPVPIIACNRRTGKCQRI (peptide, UniProt P55788 1-21, looked up) [P. maculiventris thanatin Y10A/M21I]

Further lines, the molecule ahead of its results:

Molecule: Murgantia histrionica thanatin (peptide)
MIC against E. coli ATCC 25922 [1]: 1.1 µg/mL

Molecule: Chinavia ubica thanatin (peptide)
MIC against E. coli ATCC 25922 [1]: 1.4 µg/mL

Molecule: GSKKPVPIIYCNRRTGKCQRI (peptide, UniProt P55788 1-21, looked up) [P. maculiventris thanatin M21I]
fold improvement of binding over P. maculiventris thanatin [2]: ~3 fold

Molecule: GSKKPVPIIYCNRRTGKCRRM (peptide, UniProt P55788 1-21, looked up) [P. maculiventris thanatin Q19R]
fold improvement of binding over P. maculiventris thanatin [2]: ~3 fold

B1: E. coli LptAm (truncated monomeric LptA) (domain or fragment, UniProt P0ADV1 28-158, looked up)
chain: T1 sequence (looked up)
stoichiometry N [3]: 2
